T1: extracellular domain of human KLB expressed with C-terminal HA and hexahistidine tags (human, UniProt Q86Z14 1-996)
T1 construct: also called hKLB-HA-6His; hKLB-HA-6his
T1 sequence: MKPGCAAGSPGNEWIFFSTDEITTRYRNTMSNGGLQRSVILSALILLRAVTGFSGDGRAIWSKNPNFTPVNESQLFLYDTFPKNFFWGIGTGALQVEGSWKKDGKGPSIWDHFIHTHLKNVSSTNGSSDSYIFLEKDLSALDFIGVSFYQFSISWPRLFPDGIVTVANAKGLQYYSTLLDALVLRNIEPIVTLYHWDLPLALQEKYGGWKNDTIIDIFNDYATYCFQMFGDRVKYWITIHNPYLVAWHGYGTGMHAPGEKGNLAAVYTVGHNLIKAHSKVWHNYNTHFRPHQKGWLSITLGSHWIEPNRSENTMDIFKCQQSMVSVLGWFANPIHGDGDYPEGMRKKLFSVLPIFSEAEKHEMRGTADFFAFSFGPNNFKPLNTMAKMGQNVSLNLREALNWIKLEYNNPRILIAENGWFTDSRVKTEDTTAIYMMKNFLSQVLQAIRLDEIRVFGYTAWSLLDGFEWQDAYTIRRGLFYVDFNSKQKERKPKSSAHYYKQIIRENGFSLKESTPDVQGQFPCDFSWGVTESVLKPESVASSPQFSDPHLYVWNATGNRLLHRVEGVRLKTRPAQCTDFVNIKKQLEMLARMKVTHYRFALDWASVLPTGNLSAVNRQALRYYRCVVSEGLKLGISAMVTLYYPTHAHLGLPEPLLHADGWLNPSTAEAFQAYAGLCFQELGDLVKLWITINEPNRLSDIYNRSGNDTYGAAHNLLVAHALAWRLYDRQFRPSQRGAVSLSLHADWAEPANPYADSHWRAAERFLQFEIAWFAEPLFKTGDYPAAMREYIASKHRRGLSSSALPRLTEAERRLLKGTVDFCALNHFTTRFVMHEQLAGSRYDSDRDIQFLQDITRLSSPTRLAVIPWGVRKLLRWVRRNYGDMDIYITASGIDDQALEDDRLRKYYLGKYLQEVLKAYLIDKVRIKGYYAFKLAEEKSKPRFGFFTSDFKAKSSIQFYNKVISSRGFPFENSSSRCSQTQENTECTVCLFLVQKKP

T2: extracellular domain of human FGFR1c expressed with C-terminal V5 and hexahistidine tags (human, UniProt P11362 22-376)
T2 construct: also called hFGFR1c-V5-6His
T2 sequence: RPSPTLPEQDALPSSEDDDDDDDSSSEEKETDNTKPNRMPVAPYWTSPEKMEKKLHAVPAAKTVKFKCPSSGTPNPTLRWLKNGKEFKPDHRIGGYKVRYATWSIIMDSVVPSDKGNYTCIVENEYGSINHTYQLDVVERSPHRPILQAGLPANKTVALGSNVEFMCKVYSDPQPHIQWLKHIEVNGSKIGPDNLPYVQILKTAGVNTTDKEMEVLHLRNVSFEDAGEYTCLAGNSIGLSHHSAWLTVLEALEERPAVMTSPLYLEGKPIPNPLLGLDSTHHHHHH


Tests used:
[1] = target: M. fascicularis KLB and human FGFR1c co-expressed on HEK293/MfKLB/hFGFR1c/SRE-Luc cells (M. fascicularis; human, UniProt A0A2K5WB58 1-1044); test: cell-based or functional assay
[2] = target: T1, extracellular domain of human KLB …; test: SPR, mAb captured, 37 C
Experimental: (§1) Equilibrium dissociation constants (KD values) for human KLB or human FGFR1c binding to purified anti-KLB/FGFR1c monoclonal antibodies were determined using a real-time surface plasmon resonance biosensor using a Biacore T-200 or 4000 instrument. The Biacore sensor surface was derivatized by amine coupling with either a polyclonal rabbit anti-mouse antibody (GE, # BR-1008-38) or with a monoclonal mouse anti-human Fc antibody (GE, # BR-1008-39) to capture anti-KLB/FGFR1c monoclonal antibodies expressed with either a mouse Fc or a human Fc, respectively. All Biacore binding studies were performed in a buffer composed of 0.01M HEPES pH 7.4, 0.15M NaCl, 3mM EDTA, 0.05% v/v Surfactant P20 (HBST running buffer). […] Association of hKLB-HA-6His or hFGFR1c-V5-6His to the captured monoclonal antibody was monitored for 3.5 to 4 minutes and the dissociation of hKLB-HA-6His or hFGFR1c-V5-6His in HBST running buffer was monitored for 8-12 minutes. All the binding kinetics experiments were performed at 25° C. or 37° C. Kinetic association (kₐ) and dissociation (kd) rate constants were determined by fitting the real-time sensorgrams to a 1:1 binding model using Scrubber 2.0c curve fitting software. Binding dissociation equilibrium constants (KD) and dissociative half-lives (t½) were calculated from the kinetic rate constants as: […]

[3] = target: T2, extracellular domain of human FGFR1c …; test: SPR, mAb captured, 37 C
Experimental: as §1

[4] = target: T3, human KLB and human FGFR1c co-expressed on HEK293/hKLB/hFGFR1c/SRE-luc cells (human, UniProt Q86Z14 1-1044; P11362 22-822); test: FACS on stable HEK293 cells
T3 construct: two receptors co-expressed on one cell line; also called KLB/FGFR1c coreceptor; FGF21R
Experimental: To determine binding specificity of the monoclonal anti-KLB/FGFR1c antibodies, the antibodies were tested in a fluorescence-activated cell sorting (FACS) binding assay to cell lines expressing human FGFR1c, human KLB, and both human FGFR1c and human KLB. HEK293 cell lines were generated that stably express full-length human FGFR1c (hFGFR1c; SEQ ID NO:433) or full-length human KLB (hKLB; SEQ ID NO:434) or both human FGFR1c and human KLB, along with a luciferase reporter [SRE (serum response element)-luciferase, SA Bioscience, #CLS-010L]. The resulting cell lines, referred to as HEK293/hFGFR1c/SRE-luc, HEK293/hKLB/SRE-luc, and HEK293/hKLB/hFGFR1c/SRE-luc, respectively, were maintained in DMEM supplemented with 10% FBS, NEAA, penicillin/streptomycin, 1 μg/mL puromycin and […] hygromycin B, 1 μg/mL puromycin and 500 μg/mL G418, or all three antibiotics.
For the FACS analysis, HEK293 parental, HEK293/hFGFR1c/SRE-luc, HEK293/hKLB/SRE-luc, and HEK293/hKLB/hFGFR1c/SRE-luc cells were dissociated and plated onto 96-well v-bottom plates at 5 x 10⁵ cells/well in PBS containing 1% FBS. […] Cells were filtered and subsequently analyzed on a Hypercyte Flow Cytometer (Intellicyt Corp.). Unstained and secondary antibody alone controls were also tested for binding to all cell lines. The results were analyzed using FlowJo version 9.52 software and geometric mean (Geom. Mean) of fluorescence for viable cells was determined. Geom. mean of fluorescence for each antibody was then normalized to Geom. mean of unstained cells to obtain relative binding of antibody (binding ratios) per each cell type.

Binder	IC50, inhibition of 10 nM mfFGF21 [1]	Maximum Inhibition (%) of 10 nM mfFGF21 [1]	20 nM hKLB-HA-6His Bind (RU) [2]	Kd [2]	koff [2]	kon [2]	t1/2 [2]	180 nM hFGFR1c-V5-6His Bind (RU) [3]	binding ratio to unstained cells [4]	EC50, SRE-luc activation without ligand [1]	Maximum Activation (%) without ligand [1]
H2aM8109N (antibody, V domains shown, mouse IgG2 Fc (H2aM prefix)) VH: QVQVVESGGGVVQPGRSLRLSCAASGFTFSSYGLHWVRQAPGKGLEWVAVIWHDGSHKYYADSVKGRFTISRDNSKNTLYLQMNSLRAEDTAVYYCARDGIPVAEDYYFYGMDVWGQGTTVTVSS VL: DIQMTQSPSSLSASVGDRVTITCRASQGIRNDLGWYQQKPGKAPKRLIYAASSLQSGVPSRFSGSGSGTEFTLTISSLQPEDFAIYYCLQHNSLTFGGGTKVEIK	0.19 nM	32%	36.8 RU	6.2 nM	0.00131 s⁻¹	211000 M⁻¹ s⁻¹	0.147 h	0.7 RU	58 fold		
H2aM8832N (antibody, V domains shown, mouse IgG2 Fc (H2aM prefix)) VH: QVQLVESGGGVVQPGRSLRLSCAASGFTFSRYGMHWVRQAPGKGLEWVAVIWYDGTNKYYEDSLKGRFTISRDNSKNTLYLQMNSLRAEDSAVYYCARDQGKYIDYWGQGTLVTVSS VL: AIQMTQSPSSLSASVGDRVTITCRTSQDIRNDLGWYQQKPGKVPNLLIYAASTLQSGVPSRFSGSGSGTDFTLTISSLQPEDFATYYCLQDYNYPFTFGPGTKVDIK	0.11 nM	15%	-0.7 RU					2.3 RU	7 fold		
H4H8837P (antibody, V domains shown, human IgG4 Fc (H4H prefix)) VH: QVQLVESGGGVVQPGRSLRLSCAASGFTFNSYAMHWVRQAPGMGLEWVAVISSDGSNKYYADSVRGRFTVSRDNSKNTLYLQMNSLRSEDTAVYYCAKDGRGYSSFSHFGMDVWGQGTTVTVSS VL: DIQMTQSPSTLSASVGDRVTITCRASQSIGSWLAWYQQKPGKAPKLLIYKTSSLESGVPSRFSGSGSGTEFTLTISSLQPDDFASYYCQQYNSYSFGQGTKVEIK	0.089 nM	51%	372 RU	0.401 nM	0.000128 s⁻¹	320000 M⁻¹ s⁻¹	1.5 h	0.1 RU	33 fold		
H4H8852P (antibody, V domains shown, human IgG4 Fc (H4H prefix)) VH: QVQLQESGPGLVKPSETLSLTCTVSGGSISSYYWSWIRQPPGKGLEWIGYIYSSGIIKYNPSLKSRVTISADTSKNQFSLKLSSVTAADTAVYYCARHGIFGVMEYFQRWGQGTLVTVSS VL: DIQMTQSPSSLSASIGDRVTITCQASQDIGNFLNWYQQKPGKAPTLLIYDASNMETGVPSRFSGSGSGTYFTFTISSLQPEDVATYYCQQYDNLPLTFGGGTKVEIK	0.47 nM	101%	5.1 RU					1 RU	33 fold	0.046 nM	5%
H4H8871P (antibody, V domains shown, human IgG4 Fc (H4H prefix)) VH: QVQLQESGPGLVKPSETLSLTCTVSGASISSYYWSWIRQPPGKGLEWIGYIYSSGIIKYNPSLKSRVTISADTSKNQFSLKLSSVTAADTAVYYCARHGIFGVMEYFQRWGQGTLVTVSS VL: DIQMTQSPSSLSASIGDRVTITCQASQDIGNFLNWYHQKPGKAPTLLIYDASNMETGVPSRFRGSGSGTYFTFIISSLQPEDVATYYCQQYDNLPLTFGGGTKVEIK	0.39 nM	92%	-0.9 RU					-1.4 RU	33 fold	0.13 nM	4%
H4H8856P (antibody, V domains shown, human IgG4 Fc (H4H prefix)) VH: QVQLQESGPGLVKPSETLSLTCTVSGGSISSYYWSWIRQPPGKGLEWIAYIYYSGITKYNPSLKSRVTISADTSKNQFSLKLSSVTAADTAVYYCARHGIFGVMEYFQRWGQGTLVTVSS VL: DIQMTQSPSSLSASIGDRVTITCQASQDISNFLNWYQQKPGKAPTLLIYDVSNMETGVPSRFSGSGYGTDFTLTISSLKPEDIATYYCQQYDNIPLTFGGGTKVEIK	0.79 nM	91%	-0.5 RU					0.3 RU	30 fold	0.18 nM	5%
H1M8115N (antibody, V domains shown, H1M Fc prefix (mouse Fc)) VH: QVQLVQSGAEVKKPGSSVKVSCKASGGTFSTYEISWVRQAPGQGLEWMGGIIPVFGTTHYAQKFQDSVTITTDESTGTAFMELSSLKSEDTAVYYCARGGAGGDNWGQGTLVTVSS VL: not shown	0.03 nM	47%	118 RU	0.206 nM	0.000144 s⁻¹	699000 M⁻¹ s⁻¹	1.34 h	0.4 RU	33 fold		
